Measured values published in the supplement of paper PMC9112550, “Optimization of the antimicrobial peptide Bac7 by deep mutational scanning” (BMC Biology, 2022).

tested on: Escherichia coli TOP10; experiment: shrunken log2 fold change of peptide-encoding DNA abundance (4.5 h post-induction vs induction); higher = less antimicrobial activity (less host growth inhibition); conditions: time post-induction: 4.5 h; library: site-saturation at positions 5, 18, 19, 20
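Further: peptides expressed intracellularly from a pBAD plasmid library in pooled LB shake-flask culture, induced with 0.3% L-arabinose, DNA abundance read by NGS, three biological replicates, DESeq2 with apeglm shrinkage.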

Sequence | shrunken log2 fold change
RRIRTRPPRLPRPRPRPQGVPRP | -0.0062
RRIRCRPPRLPRPRPRPAENPRP | 0.000461
RRIRDRPPRLPRPRPRPIREPRP | -0.00227
RRIRSRPPRLPRPRPRPIMRPRP | 0.73
RRIRTRPPRLPRPRPRPSPKPRP | 2.46
RRIRNRPPRLPRPRPRPYSNPRP | -0.155
RRIRHRPPRLPRPRPRPKTRPRP | -0.0214
RRIRFRPPRLPRPRPRPQAVPRP | 0.0175
RRIRARPPRLPRPRPRPQDGPRP | 0.214
RRIRMRPPRLPRPRPRPVPPPRP | 0.901
RRIRGRPPRLPRPRPRPVPSPRP | 0.201
RRIRTRPPRLPRPRPRPDDLPRP | 0.0162
RRIRLRPPRLPRPRPRPNQCPRP | -0.206
RRIRRRPPRLPRPRPRPQHCPRP | -0.0448
RRIRWRPPRLPRPRPRPPPKPRP | 0.945
RRIRTRPPRLPRPRPRPNGKPRP | -0.189
RRIRMRPPRLPRPRPRPQVDPRP | -0.00893
RRIRKRPPRLPRPRPRPGGFPRP | 0.223
RRIRLRPPRLPRPRPRPSERPRP | -0.0849
RRIRGRPPRLPRPRPRPISKPRP | 0.0989
RRIRDRPPRLPRPRPRPGGTPRP | 0.454
RRIRCRPPRLPRPRPRPYCVPRP | -0.517
RRIRYRPPRLPRPRPRPENSPRP | -0.0207
RRIRNRPPRLPRPRPRPVEMPRP | 0.0554
RRIRWRPPRLPRPRPRPMDHPRP | -0.128

Sequence | shrunken log2 fold change
RRIRVRPPRLPRPRPRPMQFPRP | 0.0422
RRIRVRPPRLPRPRPRPMFTPRP | -0.0798
RRIRNRPPRLPRPRPRPHIIPRP | 0.0166
RRIRNRPPRLPRPRPRPFDEPRP | -0.305
RRIRTRPPRLPRPRPRPSESPRP | 0.122
RRIRDRPPRLPRPRPRPEVDPRP | 0.00961
RRIRARPPRLPRPRPRPAWQPRP | 0.626
RRIRTRPPRLPRPRPRPCHWPRP | -0.00233
RRIRIRPPRLPRPRPRPDLAPRP | -0.169
RRIRMRPPRLPRPRPRPVQDPRP | 0.32
RRIRYRPPRLPRPRPRPIAEPRP | 2.73
RRIRMRPPRLPRPRPRPYQLPRP | 0.0393
RRIRFRPPRLPRPRPRPPCFPRP | -0.0777
RRIRCRPPRLPRPRPRPGSPPRP | 0.169
RRIRWRPPRLPRPRPRPVGPPRP | 0.281
RRIRMRPPRLPRPRPRPPNEPRP | 0.2
RRIRQRPPRLPRPRPRPGTHPRP | -0.00939
RRIRIRPPRLPRPRPRPKWWPRP | 0.188
RRIRERPPRLPRPRPRPVDVPRP | 0.064
RRIRDRPPRLPRPRPRPRMQPRP | -0.196
RRIRERPPRLPRPRPRPIRRPRP | -0.17
RRIRERPPRLPRPRPRPHHDPRP | -0.578
RRIRWRPPRLPRPRPRPNFLPRP | -0.308
RRIRERPPRLPRPRPRPMMPPRP | 0.0391
RRIRARPPRLPRPRPRPGTYPRP | -0.257

Sequence | shrunken log2 fold change
RRIRERPPRLPRPRPRPFKTPRP | -0.0273
RRIRTRPPRLPRPRPRPIKWPRP | 0.0186
RRIRVRPPRLPRPRPRPDPVPRP | -0.00845
RRIRRRPPRLPRPRPRPTLPPRP | 0.482
RRIRLRPPRLPRPRPRPDMFPRP | -0.218
RRIRDRPPRLPRPRPRPQISPRP | 0.141
RRIRGRPPRLPRPRPRPNPWPRP | 0.454
RRIRDRPPRLPRPRPRPVNPPRP | 0.342
RRIRHRPPRLPRPRPRPMFDPRP | 0.108
RRIRKRPPRLPRPRPRPGAYPRP | 0.0945
RRIRNRPPRLPRPRPRPTLNPRP | -0.105
RRIRQRPPRLPRPRPRPAIDPRP | 0.0942
RRIRSRPPRLPRPRPRPQWSPRP | -0.176
RRIRPRPPRLPRPRPRPYSIPRP | -0.0708
RRIRSRPPRLPRPRPRPNYIPRP | -0.757
RRIRNRPPRLPRPRPRPKIWPRP | 0.0854
RRIRGRPPRLPRPRPRPVIHPRP | 0.0507
RRIRLRPPRLPRPRPRPVCEPRP | 0.39
RRIRDRPPRLPRPRPRPCMNPRP | 0.119
RRIRSRPPRLPRPRPRPYPLPRP | -0.105
RRIRHRPPRLPRPRPRPGIRPRP | -0.00441
RRIRLRPPRLPRPRPRPERPPRP | 0.157
RRIRMRPPRLPRPRPRPEINPRP | 2.85
RRIRGRPPRLPRPRPRPIPFPRP | 0.266
RRIRCRPPRLPRPRPRPKYCPRP | -0.264

Sequence | shrunken log2 fold change
RRIRGRPPRLPRPRPRPEEGPRP | 0.0303
RRIRCRPPRLPRPRPRPRCAPRP | 0.346
RRIRIRPPRLPRPRPRPLFYPRP | -0.633
RRIRHRPPRLPRPRPRPMAIPRP | 0.0143
RRIRVRPPRLPRPRPRPMKQPRP | -0.0165
RRIRHRPPRLPRPRPRPRVTPRP | 0.0786
RRIRGRPPRLPRPRPRPQRTPRP | 0.853
RRIRQRPPRLPRPRPRPLMLPRP | -0.213
RRIRNRPPRLPRPRPRPTHIPRP | -0.0851
RRIRLRPPRLPRPRPRPVYMPRP | -0.283
RRIRPRPPRLPRPRPRPRCNPRP | -0.0415
RRIRKRPPRLPRPRPRPHIQPRP | -0.224
RRIRNRPPRLPRPRPRPQQWPRP | -0.0346
RRIRYRPPRLPRPRPRPDNHPRP | -0.135
RRIRKRPPRLPRPRPRPSMQPRP | 0.293
RRIRERPPRLPRPRPRPSWKPRP | -0.345
RRIRVRPPRLPRPRPRPNCPPRP | -0.0515
RRIRTRPPRLPRPRPRPITAPRP | -0.0416
RRIRFRPPRLPRPRPRPEDHPRP | 0.000834
RRIRMRPPRLPRPRPRPIWKPRP | 0.00523
RRIRHRPPRLPRPRPRPKWRPRP | 0.328
RRIRNRPPRLPRPRPRPQQMPRP | 0.0512
RRIRKRPPRLPRPRPRPGHNPRP | -0.0457
RRIRRRPPRLPRPRPRPFNFPRP | -0.473
RRIRHRPPRLPRPRPRPSDKPRP | -0.355

Sequence | shrunken log2 fold change
RRIRFRPPRLPRPRPRPIATPRP | -0.0109
RRIRDRPPRLPRPRPRPGTEPRP | 0.974
RRIRDRPPRLPRPRPRPRFCPRP | 0.341
RRIRSRPPRLPRPRPRPRVYPRP | -0.348
RRIRSRPPRLPRPRPRPFYTPRP | -0.903
RRIRARPPRLPRPRPRPGWFPRP | 0.524
RRIRWRPPRLPRPRPRPFKYPRP | -0.00867
RRIRQRPPRLPRPRPRPQWQPRP | 0.16
RRIRQRPPRLPRPRPRPPVLPRP | 0.155
RRIRSRPPRLPRPRPRPVQLPRP | 0.348
RRIRGRPPRLPRPRPRPIGWPRP | 1.18
RRIRWRPPRLPRPRPRPIRDPRP | 0.0528
RRIRPRPPRLPRPRPRPQLAPRP | 0.417
RRIRSRPPRLPRPRPRPCSYPRP | -0.379
RRIRSRPPRLPRPRPRPGGNPRP | 0.163
RRIRCRPPRLPRPRPRPHYMPRP | -0.308
RRIRHRPPRLPRPRPRPGVLPRP | 0.0408
RRIRGRPPRLPRPRPRPICAPRP | 1.2
RRIRRRPPRLPRPRPRPMTYPRP | -0.0343
RRIRPRPPRLPRPRPRPDNVPRP | 0.115
RRIRKRPPRLPRPRPRPRIVPRP | 0.161
RRIRIRPPRLPRPRPRPCKAPRP | -0.181
RRIRRRPPRLPRPRPRPVEGPRP | 0.268
RRIRPRPPRLPRPRPRPNKCPRP | -0.26
RRIRKRPPRLPRPRPRPNIGPRP | -0.05

Sequence | shrunken log2 fold change
RRIRRRPPRLPRPRPRPGWPPRP | 0.858
RRIRSRPPRLPRPRPRPDGIPRP | -0.0491
RRIRLRPPRLPRPRPRPMWSPRP | -0.0258
RRIRVRPPRLPRPRPRPMHIPRP | -0.231
RRIRTRPPRLPRPRPRPCDWPRP | -0.0538
RRIRLRPPRLPRPRPRPQRAPRP | 0.309
RRIRMRPPRLPRPRPRPAIFPRP | 0.243
RRIRERPPRLPRPRPRPKASPRP | 0.0444
RRIRLRPPRLPRPRPRPYHDPRP | -0.131
RRIRGRPPRLPRPRPRPDEAPRP | 1.56
RRIRFRPPRLPRPRPRPTPTPRP | 0.471
RRIRDRPPRLPRPRPRPEMCPRP | 0.0536
RRIRDRPPRLPRPRPRPNAVPRP | -0.101
RRIRIRPPRLPRPRPRPHWYPRP | -1.16
RRIRIRPPRLPRPRPRPGWFPRP | -0.141
RRIRGRPPRLPRPRPRPCRPPRP | -0.04
RRIRTRPPRLPRPRPRPNDRPRP | 0.21
RRIRLRPPRLPRPRPRPGWFPRP | 0.147
RRIRCRPPRLPRPRPRPGDKPRP | -0.441
RRIRCRPPRLPRPRPRPQSQPRP | 0.131
RRIRNRPPRLPRPRPRPALPPRP | 0.248
RRIRLRPPRLPRPRPRPNVAPRP | 0.0405
RRIRARPPRLPRPRPRPTFEPRP | 0.42
RRIRRRPPRLPRPRPRPMYIPRP | -0.73
RRIRFRPPRLPRPRPRPNQPPRP | -0.136
